Results reported in patent US11015206B2, “Compositions and methods comprising sequences having hydroxyphenylpyruvate dioxygenase (HPPD) activity” (PIONEER HI-BRED INTERNATIONAL, INC., priority 2014, dated 2021).

Tests used:
Format in all cases: biochemical, Z. mays
[1] = tested on: 4-hydroxyphenylpyruvate dioxygenase (HPPD); test: Estimate of kcat from initial rate at saturating hydroxyphenylpyruvate without inhibitor (ON rate ratio assay); details: Table 5; single substitutions in Round 7 variant 9070 (SEQ ID NO:2); estimate from initial rate at saturating hydroxyphenylpyruvate without inhibitor
Outline: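 kcat was estimated from the initial reaction rate with known enzyme level (60 or 120 nM HPPD). Hydroxyphenylpyruvate was at a saturating 100 μM, with no inhibitor present.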

[2] = tested on: 4-hydroxyphenylpyruvate dioxygenase (HPPD); test: ON rate ratio: HPPD reaction rate with vs without inhibitor in the 70 to 90 second interval; details: Table 5; tembotrione
Outline: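 Indicator of inhibitor on-rate: reaction velocity in the 70 to 90 second window with 4 μM inhibitor divided by that without. Reactions contained 100 μM HPP and 60 or 120 nM HPPD; slower binding gives a larger ratio.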

[3] = tested on: 4-hydroxyphenylpyruvate dioxygenase (HPPD); test: HPPD activity coupled assay with HGD; substrate saturation kinetic parameters (kcat, KM); details: Table 6; for kcat: single substitutions in SEQ ID NO:2
Outline: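 Coupled continuous assay: His-tagged HPPD (5 to 240 nM, E. coli-expressed, Ni-NTA-purified) with 50 nM P. aeruginosa HGD in 25 mM Hepes pH 7, 2 mM ascorbate, 10 μM FeSO4; maleylacetoacetate followed at 320 nm. KM and Vmax from Lineweaver-Burke fits over 3.33–100 μM HPP.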

[4] = tested on: 4-hydroxyphenylpyruvate dioxygenase (HPPD); test: Insensitivity parameter (ON × OFF) and trait fitness (ON × OFF × kcat/KM or × kcat); details: for ON × OFF × kcat, Value / ON × OFF × kcat, Fold vs wt / ON × OFF, fold vs wt / ON × OFF (parameters with tembotrione): Table 5, tembotrione; for ON × OFF × kcat, Fold vs wt / ON × OFF, fold vs wt: fold vs maize wild type HPPD; for ON × OFF (parameters with tembotrione): insensitivity parameter
Outline: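 Trait fitness combines catalysis and insensitivity as kcat/KM × ON rate ratio × OFF rate ratio. The insensitivity parameter is the product of ON and OFF rate ratios, used in place of KD because the ON rate ratio is inverse.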

[5] = tested on: 4-hydroxyphenylpyruvate dioxygenase (HPPD); test: OFF rate ratio: release of inhibitor from pre-formed enzyme-inhibitor complex; details: Table 5; tembotrione
Outline: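 Inhibitor release from pre-formed complex (enzyme 7.2 μM, inhibitor 8 μM, 1 h RT) tracked as accelerating HPPD activity at 320 nm over 12 min, coupled via 50 nM HGD with 100 μM HPP at pH 7. OFF rate ratio: steady-state velocity relative to uninhibited initial velocity.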

[6] = DKN (diketonitrile form of isoxaflutole)
[7] = DKN (isoxaflutole diketonitrile)

Molecule	kcat [1]	ON ratio (parameters with tembotrione) [2]	Km [3]	kcat [3]	Insensitivity parameter, ON × OFF [4, 6]	ON × OFF × kcat/km fold vs Round 7, variant 9070 [4, 7]	Insensitivity parameter, ON × OFF ([4]; Mesotrione, Table 6)	ON × OFF × kcat/km fold vs Round 7, variant 9070 ([4]; Sulco (sulcotrione))	Insensitivity parameter, ON × OFF ([4]; Sulcotrione)	ON × OFF × kcat, Value [4]	ON × OFF × kcat, Fold vs wt [4]	ON × OFF, fold vs wt [4]	ON × OFF (parameters with tembotrione) [4]	Insensitivity parameter, ON × OFF ([4]; Tembotrione)	ON × OFF × kcat/km fold vs Round 7, variant 9070 ([4]; Topra (topramezone))	Insensitivity parameter, ON × OFF ([4]; Topramezon)	ON × OFF × kcat/km fold vs Round 7, variant 9070 ([4]; meso (mesotrione))	ON × OFF × kcat/km fold vs Round 7, variant 9070 ([4]; tembo (tembotrione))	OFF ratio (parameters with tembotrione) [5]
206S: single substitution P206S in SEQ ID NO:2 (protein, Zea mays variant form created by artificial means.) MGPTPTATAAGAAVAAASAAEQAAFRLVGHRNFVRFNPRSDRFQTLAFHHVELWCADAASAAGRFSFALGVPLAARSDLSTGNSAHASLLLRSGSLSLLFTAPYAHGADAATAALPSFSAAAARRFAADHGLAVRAVALRVADAEDAFRASVAAGARPAFGPVDLGRGFRLAEVELYGDVVLRYVSYPDGAAGEPFLPGFEGVASSGAADYGLSRFDHIVGNVPELAPAAAYMAGFTGFHEFAEFTTEDVGTTESGLNSMALANNSENVLLPLNEPVHGTKRRSQIQTFLDHHGGPGVQHIALASDDVLRTLREMRARSAMGGFEFLPPPLSDYYDGVRRCAGDVLTEAQINECQELGVMVDRDDQGVLLQIFTKPVGDRPTFFLEIIQRIGCMEKDEKGQEYQKGGCGGFGKGNFGQLFKSIEDYEKSLEAKQAAAAATAQGS	0.592 s⁻¹	0.75	3.36 µM	1.13 s⁻¹	0.29	1.1	0.46	0.8	0.53	5.15	4.82	28.5	0.15	0.20	1.0	0.29	0.9	1.1	0.20
434H: single substitution Q434H in SEQ ID NO:2 (protein, Zea mays variant form created by artificial means.) MGPTPTATAAGAAVAAASAAEQAAFRLVGHRNFVRFNPRSDRFQTLAFHHVELWCADAASAAGRFSFALGVPLAARSDLSTGNSAHASLLLRSGSLSLLFTAPYAHGADAATAALPSFSAAAARRFAADHGLAVRAVALRVADAEDAFRASVAAGARPAFGPVDLGRGFRLAEVELYGDVVLRYVSYPDGAAGEPFLPGFEGVASPGAADYGLSRFDHIVGNVPELAPAAAYMAGFTGFHEFAEFTTEDVGTTESGLNSMALANNSENVLLPLNEPVHGTKRRSQIQTFLDHHGGPGVQHIALASDDVLRTLREMRARSAMGGFEFLPPPLSDYYDGVRRCAGDVLTEAQINECQELGVMVDRDDQGVLLQIFTKPVGDRPTFFLEIIQRIGCMEKDEKGQEYQKGGCGGFGKGNFGQLFKSIEDYEKSLEAKHAAAAATAQGS	0.865 s⁻¹	0.78	2.77 µM	1.41 s⁻¹	0.21	1.4	0.46	1.3	0.55	5.16	4.82	19.5	0.10	0.15	1.1	0.22	1.3	1.1	0.13
